Measurements as given in patent US20220332804A1 (CSL INNOVATION, published 2022).

How the values were obtained:
Test in all cases: SPR, mAb captured, C2 mutant analyte;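 further: Anti-C2 mAbs captured on goat anti-human IgG Biacore CM5 chips, alanine or serine C2 surface mutants flowed over at 37 °C, double-referenced sensorgrams fitted to a 1:1 binding model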
human C2 N327A = target: T1, human C2 N327A (human, UniProt P06681 21-752)
T1 sequence: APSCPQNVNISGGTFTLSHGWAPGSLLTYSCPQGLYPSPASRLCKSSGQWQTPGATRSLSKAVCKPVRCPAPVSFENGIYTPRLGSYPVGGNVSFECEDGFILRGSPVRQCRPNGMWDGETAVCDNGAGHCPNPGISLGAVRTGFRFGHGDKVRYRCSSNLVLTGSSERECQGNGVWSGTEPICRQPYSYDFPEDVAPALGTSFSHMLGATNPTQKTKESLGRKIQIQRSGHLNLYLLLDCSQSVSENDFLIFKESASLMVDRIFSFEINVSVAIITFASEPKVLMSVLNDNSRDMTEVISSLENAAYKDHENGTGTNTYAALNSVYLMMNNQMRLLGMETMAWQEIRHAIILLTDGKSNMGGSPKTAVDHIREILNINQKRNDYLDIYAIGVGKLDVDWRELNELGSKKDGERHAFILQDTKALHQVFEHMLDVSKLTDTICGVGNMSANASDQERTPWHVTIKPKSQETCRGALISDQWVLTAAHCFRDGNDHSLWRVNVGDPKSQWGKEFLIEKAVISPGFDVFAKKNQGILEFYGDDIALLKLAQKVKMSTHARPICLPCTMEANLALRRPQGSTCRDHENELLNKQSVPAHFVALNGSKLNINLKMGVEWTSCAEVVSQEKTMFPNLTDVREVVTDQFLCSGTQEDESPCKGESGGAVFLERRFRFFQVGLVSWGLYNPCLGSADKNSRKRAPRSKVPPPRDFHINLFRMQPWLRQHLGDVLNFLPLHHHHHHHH

human C2 S278A = target: T2, human C2 S278A (human, UniProt P06681 21-752)
T2 sequence: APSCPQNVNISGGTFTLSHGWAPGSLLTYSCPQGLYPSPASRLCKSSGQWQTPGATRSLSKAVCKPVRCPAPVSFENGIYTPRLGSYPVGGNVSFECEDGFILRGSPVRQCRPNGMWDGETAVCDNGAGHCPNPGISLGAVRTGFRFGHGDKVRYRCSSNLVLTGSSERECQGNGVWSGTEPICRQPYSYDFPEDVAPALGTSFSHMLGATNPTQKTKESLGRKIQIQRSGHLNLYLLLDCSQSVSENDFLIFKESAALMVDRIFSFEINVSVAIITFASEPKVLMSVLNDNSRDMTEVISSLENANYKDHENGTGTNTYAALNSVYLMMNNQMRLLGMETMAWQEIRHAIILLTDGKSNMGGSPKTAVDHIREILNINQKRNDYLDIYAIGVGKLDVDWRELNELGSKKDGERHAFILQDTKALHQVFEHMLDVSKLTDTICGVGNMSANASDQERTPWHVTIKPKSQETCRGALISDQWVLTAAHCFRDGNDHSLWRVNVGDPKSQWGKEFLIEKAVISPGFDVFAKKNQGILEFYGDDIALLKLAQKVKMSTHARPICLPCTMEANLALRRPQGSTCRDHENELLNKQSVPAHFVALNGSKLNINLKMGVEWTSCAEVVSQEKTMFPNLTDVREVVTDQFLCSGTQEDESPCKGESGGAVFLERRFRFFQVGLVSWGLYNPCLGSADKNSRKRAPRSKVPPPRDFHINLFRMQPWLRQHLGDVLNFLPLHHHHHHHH

human C2 N380A = target: T3, human C2 N380A (human, UniProt P06681 21-752)
T3 sequence: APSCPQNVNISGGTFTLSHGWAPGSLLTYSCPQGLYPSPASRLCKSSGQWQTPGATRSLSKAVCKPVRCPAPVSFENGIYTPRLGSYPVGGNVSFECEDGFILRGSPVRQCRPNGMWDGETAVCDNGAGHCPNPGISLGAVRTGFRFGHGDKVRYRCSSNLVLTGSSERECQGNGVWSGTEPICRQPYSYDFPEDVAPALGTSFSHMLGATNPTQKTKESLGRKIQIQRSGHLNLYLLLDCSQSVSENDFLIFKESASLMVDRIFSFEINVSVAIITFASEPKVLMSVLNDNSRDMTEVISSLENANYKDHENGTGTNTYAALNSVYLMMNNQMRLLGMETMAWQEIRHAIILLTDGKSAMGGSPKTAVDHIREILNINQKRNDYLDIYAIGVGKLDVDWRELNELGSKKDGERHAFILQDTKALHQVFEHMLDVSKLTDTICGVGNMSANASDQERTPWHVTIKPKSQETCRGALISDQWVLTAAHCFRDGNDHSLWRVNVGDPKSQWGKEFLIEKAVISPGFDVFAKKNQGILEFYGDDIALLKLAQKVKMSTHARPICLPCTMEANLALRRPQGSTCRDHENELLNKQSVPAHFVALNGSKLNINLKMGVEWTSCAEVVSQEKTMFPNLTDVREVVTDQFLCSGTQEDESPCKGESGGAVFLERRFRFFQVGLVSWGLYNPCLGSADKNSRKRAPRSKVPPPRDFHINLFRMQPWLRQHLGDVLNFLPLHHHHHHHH

human C2 S473A = target: T4, human C2 S473A (human, UniProt P06681 21-752)
T4 sequence: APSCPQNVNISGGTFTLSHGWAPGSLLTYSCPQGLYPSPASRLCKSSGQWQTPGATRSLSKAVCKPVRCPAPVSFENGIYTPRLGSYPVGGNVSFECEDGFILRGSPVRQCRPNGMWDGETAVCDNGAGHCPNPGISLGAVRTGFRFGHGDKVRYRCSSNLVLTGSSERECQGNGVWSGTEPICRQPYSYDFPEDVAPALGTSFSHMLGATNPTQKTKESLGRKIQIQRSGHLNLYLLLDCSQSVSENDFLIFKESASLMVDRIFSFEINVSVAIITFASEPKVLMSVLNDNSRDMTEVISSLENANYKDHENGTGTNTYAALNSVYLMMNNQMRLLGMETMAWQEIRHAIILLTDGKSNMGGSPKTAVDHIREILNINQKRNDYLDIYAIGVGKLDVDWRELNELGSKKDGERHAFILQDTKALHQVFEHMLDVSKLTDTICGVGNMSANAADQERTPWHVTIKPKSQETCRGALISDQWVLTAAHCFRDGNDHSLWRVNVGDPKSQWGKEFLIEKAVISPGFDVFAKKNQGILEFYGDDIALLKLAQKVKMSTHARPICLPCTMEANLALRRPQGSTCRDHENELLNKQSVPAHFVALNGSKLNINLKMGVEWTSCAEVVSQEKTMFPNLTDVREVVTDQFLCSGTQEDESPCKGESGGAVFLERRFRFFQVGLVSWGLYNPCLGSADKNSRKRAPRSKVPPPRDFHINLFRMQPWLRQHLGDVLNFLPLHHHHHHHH

Kd (human C2 N327A): 205 nM | Kd (human C2 S278A): 34.5 nM | Kd (human C2 N380A): 58.8 nM | Kd (human C2 S473A): 68.7 nM
B1: RF16-214 (antibody, V domains shown)
VH: EVQLLESGGGLVQPGGSLRLSCAASGFTFSWYQMMWVRQAPGKGLEWVSRIYPSGGGTAYADSVKGRFTISRDNSKNTLYLQMNSLRAEDTAVYYCARDAGYGDNWGQGTLVTVSS
VL: QSALTQPPSVSVSPGQTASITCSGDKLGEKYASWYQQKAGQSPVMVIYQDRKRPSGIPERFSGSNSGNTATLTISGTQAMDEADYYCQAWDTRAVVFGGGTKLTVLG
